Reference: patent publication US20080181886A1 (Genentech, published 2008)

T1: Murine APRIL (mouse, UniProt Q9D777 105-241, limits assumed)
T1 sequence (looked up): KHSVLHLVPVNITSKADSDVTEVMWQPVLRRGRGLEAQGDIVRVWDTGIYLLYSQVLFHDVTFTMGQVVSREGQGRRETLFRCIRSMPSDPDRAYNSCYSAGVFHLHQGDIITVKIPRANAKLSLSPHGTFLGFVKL


Each binder was assayed against T1, Murine APRIL (assay: NNS library, phage display;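 also: ligand versus display occurrence-to-degeneracy ratio and higher means enriched by binding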).
Procedure: (§1) This new phage library was subjected to sorting against either BAFF, APRIL or the display target antibody. After 3 rounds of sorting, approximately 48 clones were picked from each selection and the DNA sequences of the phage clones were determined. […] The normalized F′ value corrects for display bias and is calculated as the percent occurrence to percent degeneracy ratio for ligand selection divided by the percent occurrence to percent degeneracy ratio for display efficiency. Percent occurrence is calculated by dividing the number of times a particular amino acid appeared at a particular position by the total number of amino acids sequenced at that position followed by multiplying by 100. Percent degeneracy is calculated by dividing the degeneracy in code for a particular amino acid divided by the total degeneracy possible at that position followed by multiplying by 100 (e.g., if only A, G and I were selected, total degeneracy possible would be 5).

Going from SLSCRKEQGKTYDHLLRDCISCASICGQHPKQCAYFCENKLR (receptor, phage library variant, format as m9) [TACI_d2 F78T] to SLSCRKEQGKFYDHLLKDCISCASICGQHPKQCAYFCENKLR (receptor, phage library variant, format as m9) [TACI_d2 R84K], the “F' APRIL” value falls from 1 to 0.

Compared with SLSCRKEQGKFYDHLLVDCISCASICGQHPKQCAYFCENKLR (receptor, phage library variant, format as m9) [TACI_d2 R84V], SLSCRKEQGKFYDHLLEDCISCASICGQHPKQCAYFCENKLR (receptor, phage library variant, format as m9) [TACI_d2 R84E] is lower in “F' APRIL” value: 4 for the first, 3 for the second.

Going from SLSCRKEQGKFYDHLLWDCISCASICGQHPKQCAYFCENKLR (receptor, phage library variant, format as m9) [TACI_d2 R84W] to SLSCRKEQGKFYDHLLRDCISCASLCGQHPKQCAYFCENKLR (receptor, phage library variant, format as m9) [TACI_d2 I92L], the “F' APRIL” value falls from 9 to 2.

SLSCRKEQGKFYDHLLRDCISCASECGQHPKQCAYFCENKLR (receptor, phage library variant, format as m9) [TACI_d2 I92E] and SLSCRKEQGKFYDHLLHDCISCASICGQHPKQCAYFCENKLR (receptor, phage library variant, format as m9) [TACI_d2 R84H] are the same in “F' APRIL” value: 0 for the first, 0 for the second.

Going from SLSCRKEQGKYYDHLLRDCISCASICGQHPKQCAYFCENKLR (receptor, phage library variant, format as m9) [TACI_d2 F78Y] to SLSCRKEQGKFYDHLLNDCISCASICGQHPKQCAYFCENKLR (receptor, phage library variant, format as m9) [TACI_d2 R84N], the “F' APRIL” value falls from 61 to 0.

SLSCRKEQGKFYDHLLRDCISCASHCGQHPKQCAYFCENKLR (receptor, phage library variant, format as m9) [TACI_d2 I92H] and SLSCRKEQGKFYDHLLRDCISCASQCGQHPKQCAYFCENKLR (receptor, phage library variant, format as m9) [TACI_d2 I92Q] are the same in “F' APRIL” value: 0 for the first, 0 for the second.

Compared with SLSCRKEQGKFYDHLLLDCISCASICGQHPKQCAYFCENKLR (receptor, phage library variant, format as m9) [TACI_d2 R84L], SLSCRKEQGKFYDHLLRDCISCASRCGQHPKQCAYFCENKLR (receptor, phage library variant, format as m9) [TACI_d2 I92R] is lower in “F' APRIL” value: 3 for the first, 0 for the second.

SLSCRKEQGKFYDHLLRDCISCASCCGQHPKQCAYFCENKLR (receptor, phage library variant, format as m9) [TACI_d2 I92C] and SLSCRKEQGKFYDHLLRDCISCASGCGQHPKQCAYFCENKLR (receptor, phage library variant, format as m9) [TACI_d2 I92G] are the same in “F' APRIL” value: 0 for the first, 0 for the second.

SLSCRKEQGKWYDHLLRDCISCASICGQHPKQCAYFCENKLR (receptor, phage library variant, format as m9) [TACI_d2 F78W] and SLSCRKEQGKFYDHLLRDCISCASYCGQHPKQCAYFCENKLR (receptor, phage library variant, format as m9) [TACI_d2 I92Y] are the same in “F' APRIL” value: 0 for the first, 0 for the second.

Compared with SLSCRKEQGKFYDHLLSDCISCASICGQHPKQCAYFCENKLR (receptor, phage library variant, format as m9) [TACI_d2 R84S], SLSCRKEQGKFYDHLLMDCISCASICGQHPKQCAYFCENKLR (receptor, phage library variant, format as m9) [TACI_d2 R84M] is higher in “F' APRIL” value: 0 for the first, 18 for the second.

SLSCRKEQGKFYDHLLRDCISCASPCGQHPKQCAYFCENKLR (receptor, phage library variant, format as m9) [TACI_d2 I92P] and SLSCRKEQGKFYDHLLRDCISCASFCGQHPKQCAYFCENKLR (receptor, phage library variant, format as m9) [TACI_d2 I92F] are the same in “F' APRIL” value: 0 for the first, 0 for the second.

SLSCRKEQGKFYDHLLIDCISCASICGQHPKQCAYFCENKLR (receptor, phage library variant, format as m9) [TACI_d2 R84I] and SLSCRKEQGKFYDHLLRDCISCASSCGQHPKQCAYFCENKLR (receptor, phage library variant, format as m9) [TACI_d2 I92S] are the same in “F' APRIL” value: 0 for the first, 0 for the second.

First: SLSCRKEQGKFYDHLLFDCISCASICGQHPKQCAYFCENKLR (receptor, phage library variant, format as m9) [TACI_d2 R84F]
Second: SLSCRKEQGKFYDHLLRDCISCASWCGQHPKQCAYFCENKLR (receptor, phage library variant, format as m9) [TACI_d2 I92W]
The “F' APRIL” value of the first is higher: 9 for the first, 0 for the second.

SLSCRKEQGKFYDHLLQDCISCASICGQHPKQCAYFCENKLR (receptor, phage library variant, format as m9) [TACI_d2 R84Q] and SLSCRKEQGKFYDHLLRDCISCASNCGQHPKQCAYFCENKLR (receptor, phage library variant, format as m9) [TACI_d2 I92N] are the same in “F' APRIL” value: 0 for the first, 0 for the second.

Compared with SLSCRKEQGKFYDHLLRDCISCASDCGQHPKQCAYFCENKLR (receptor, phage library variant, format as m9) [TACI_d2 I92D], SLSCRKEQGKFYDHLLDDCISCASICGQHPKQCAYFCENKLR (receptor, phage library variant, format as m9) [TACI_d2 R84D] is higher in “F' APRIL” value: 0 for the first, 9 for the second.

SLSCRKEQGKFYDHLLTDCISCASICGQHPKQCAYFCENKLR (receptor, phage library variant, format as m9) [TACI_d2 R84T] and SLSCRKEQGKFYDHLLCDCISCASICGQHPKQCAYFCENKLR (receptor, phage library variant, format as m9) [TACI_d2 R84C] are the same in “F' APRIL” value: 0 for the first, 0 for the second.

SLSCRKEQGKFYDHLLRDCISCASMCGQHPKQCAYFCENKLR (receptor, phage library variant, format as m9) [TACI_d2 I92M] and SLSCRKEQGKFYDHLLRDCISCASKCGQHPKQCAYFCENKLR (receptor, phage library variant, format as m9) [TACI_d2 I92K] are the same in “F' APRIL” value: 0 for the first, 0 for the second.

These binders were tested against human BAFF (human, UniProt Q9Y275 82-285, limits assumed) (assay: NNS library, phage display;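 also: ligand versus display occurrence-to-degeneracy ratio and higher means enriched by binding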).
Procedure: as §1

Sequence of human BAFF (Q9Y275 82-285 limits assumed): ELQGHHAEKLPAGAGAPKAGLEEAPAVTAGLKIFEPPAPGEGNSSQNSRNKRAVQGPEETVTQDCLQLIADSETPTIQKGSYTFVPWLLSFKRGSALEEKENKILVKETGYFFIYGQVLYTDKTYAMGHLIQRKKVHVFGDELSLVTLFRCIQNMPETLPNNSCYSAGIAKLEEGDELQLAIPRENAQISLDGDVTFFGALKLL

Compared with SLSCRKEQGKTYDHLLRDCISCASICGQHPKQCAYFCENKLR (receptor, phage library variant, format as m9) [TACI_d2 F78T], SLSCRKEQGKFYDHLLKDCISCASICGQHPKQCAYFCENKLR (receptor, phage library variant, format as m9) [TACI_d2 R84K] is higher in “F' BAFF” value: 0 for the first, 1 for the second.

Going from SLSCRKEQGKFYDHLLVDCISCASICGQHPKQCAYFCENKLR (receptor, phage library variant, format as m9) [TACI_d2 R84V] to SLSCRKEQGKFYDHLLEDCISCASICGQHPKQCAYFCENKLR (receptor, phage library variant, format as m9) [TACI_d2 R84E], the “F' BAFF” value falls from 2 to 0.

SLSCRKEQGKFYDHLLWDCISCASICGQHPKQCAYFCENKLR (receptor, phage library variant, format as m9) [TACI_d2 R84W] and SLSCRKEQGKFYDHLLRDCISCASLCGQHPKQCAYFCENKLR (receptor, phage library variant, format as m9) [TACI_d2 I92L] are the same in “F' BAFF” value: 0 for the first, 0 for the second.

First: SLSCRKEQGKFYDHLLRDCISCASECGQHPKQCAYFCENKLR (receptor, phage library variant, format as m9) [TACI_d2 I92E]
Second: SLSCRKEQGKFYDHLLHDCISCASICGQHPKQCAYFCENKLR (receptor, phage library variant, format as m9) [TACI_d2 R84H]
The “F' BAFF” value of the first is lower: 0 for the first, 1 for the second.

Compared with SLSCRKEQGKYYDHLLRDCISCASICGQHPKQCAYFCENKLR (receptor, phage library variant, format as m9) [TACI_d2 F78Y], SLSCRKEQGKFYDHLLNDCISCASICGQHPKQCAYFCENKLR (receptor, phage library variant, format as m9) [TACI_d2 R84N] is lower in “F' BAFF” value: 41 for the first, 1 for the second.

SLSCRKEQGKFYDHLLRDCISCASHCGQHPKQCAYFCENKLR (receptor, phage library variant, format as m9) [TACI_d2 I92H] and SLSCRKEQGKFYDHLLRDCISCASQCGQHPKQCAYFCENKLR (receptor, phage library variant, format as m9) [TACI_d2 I92Q] are the same in “F' BAFF” value: 0 for the first, 0 for the second.

Compared with SLSCRKEQGKFYDHLLLDCISCASICGQHPKQCAYFCENKLR (receptor, phage library variant, format as m9) [TACI_d2 R84L], SLSCRKEQGKFYDHLLRDCISCASRCGQHPKQCAYFCENKLR (receptor, phage library variant, format as m9) [TACI_d2 I92R] is lower in “F' BAFF” value: 2 for the first, 0 for the second.

SLSCRKEQGKFYDHLLRDCISCASCCGQHPKQCAYFCENKLR (receptor, phage library variant, format as m9) [TACI_d2 I92C] and SLSCRKEQGKFYDHLLRDCISCASGCGQHPKQCAYFCENKLR (receptor, phage library variant, format as m9) [TACI_d2 I92G] are the same in “F' BAFF” value: 0 for the first, 0 for the second.

SLSCRKEQGKWYDHLLRDCISCASICGQHPKQCAYFCENKLR (receptor, phage library variant, format as m9) [TACI_d2 F78W] and SLSCRKEQGKFYDHLLRDCISCASYCGQHPKQCAYFCENKLR (receptor, phage library variant, format as m9) [TACI_d2 I92Y] are the same in “F' BAFF” value: 0 for the first, 0 for the second.

Compared with SLSCRKEQGKFYDHLLSDCISCASICGQHPKQCAYFCENKLR (receptor, phage library variant, format as m9) [TACI_d2 R84S], SLSCRKEQGKFYDHLLMDCISCASICGQHPKQCAYFCENKLR (receptor, phage library variant, format as m9) [TACI_d2 R84M] is higher in “F' BAFF” value: 0 for the first, 7 for the second.

SLSCRKEQGKFYDHLLRDCISCASPCGQHPKQCAYFCENKLR (receptor, phage library variant, format as m9) [TACI_d2 I92P] and SLSCRKEQGKFYDHLLRDCISCASFCGQHPKQCAYFCENKLR (receptor, phage library variant, format as m9) [TACI_d2 I92F] are the same in “F' BAFF” value: 0 for the first, 0 for the second.

SLSCRKEQGKFYDHLLIDCISCASICGQHPKQCAYFCENKLR (receptor, phage library variant, format as m9) [TACI_d2 R84I] and SLSCRKEQGKFYDHLLRDCISCASSCGQHPKQCAYFCENKLR (receptor, phage library variant, format as m9) [TACI_d2 I92S] are the same in “F' BAFF” value: 0 for the first, 0 for the second.

First: SLSCRKEQGKFYDHLLFDCISCASICGQHPKQCAYFCENKLR (receptor, phage library variant, format as m9) [TACI_d2 R84F]
Second: SLSCRKEQGKFYDHLLRDCISCASWCGQHPKQCAYFCENKLR (receptor, phage library variant, format as m9) [TACI_d2 I92W]
The “F' BAFF” value of the first is higher: 7 for the first, 0 for the second.

SLSCRKEQGKFYDHLLQDCISCASICGQHPKQCAYFCENKLR (receptor, phage library variant, format as m9) [TACI_d2 R84Q] and SLSCRKEQGKFYDHLLRDCISCASNCGQHPKQCAYFCENKLR (receptor, phage library variant, format as m9) [TACI_d2 I92N] are the same in “F' BAFF” value: 0 for the first, 0 for the second.

SLSCRKEQGKFYDHLLRDCISCASDCGQHPKQCAYFCENKLR (receptor, phage library variant, format as m9) [TACI_d2 I92D] and SLSCRKEQGKFYDHLLDDCISCASICGQHPKQCAYFCENKLR (receptor, phage library variant, format as m9) [TACI_d2 R84D] are the same in “F' BAFF” value: 0 for the first, 0 for the second.

Going from SLSCRKEQGKFYDHLLTDCISCASICGQHPKQCAYFCENKLR (receptor, phage library variant, format as m9) [TACI_d2 R84T] to SLSCRKEQGKFYDHLLCDCISCASICGQHPKQCAYFCENKLR (receptor, phage library variant, format as m9) [TACI_d2 R84C], the “F' BAFF” value falls from 3 to 0.

SLSCRKEQGKFYDHLLRDCISCASMCGQHPKQCAYFCENKLR (receptor, phage library variant, format as m9) [TACI_d2 I92M] and SLSCRKEQGKFYDHLLRDCISCASKCGQHPKQCAYFCENKLR (receptor, phage library variant, format as m9) [TACI_d2 I92K] are the same in “F' BAFF” value: 0 for the first, 0 for the second.
